“And” between values parts separate entries of the source, which are not always exact repeats. Identical values can stand only once. One block for each molecule: values may come before it.
Legend:
[1] = biological target: helicase DnaB hexamer from Bacillus stearothermophilus (Bacillus stearothermophilus) (UniProt Q9X4C9); test: ITC; DnaB hexamer without ssDNA titrated by DnaG(HBD); 25°C; 25 mmol/L Tris pH 8.0, 100 mmol/L NaCl
[2] = biological target: helicase DnaB hexamer from Bacillus stearothermophilus (Bacillus stearothermophilus) (UniProt Q9X4C9); test: ITC; DnaG(HBD) (200 μmol/L, needle) titrated into the pre-formed, gel-filtered DnaB6/dT16 complex (10 μmol/L, cell); 25°C; 25 mmol/L Tris pH 8.0, 100 mmol/L NaCl; one-set-of-sites model
DnaB helicase = biological target: T1, DnaB helicase (Bacillus stearothermophilus, UniProt Q9X4C9 1-454); test: gel filtration with SDS-PAGE and SYBR Green II staining; binary complex; EMSA: 25 mM Tris pH 8.0, 100 mM NaCl, 10% glycerol, 1 mM DTT, 5 mM MgCl2, 2 mM ATP, 4 C, native PAGE (6% in Methods, 8% in legend); ITC: 25 mM Tris pH 8.0, 100; conditions: protein: recombinant; tags: GST tag removed with PreScission (pGEX-6p-1); chain copies: 6; label: none stated; single strand
T1 sequence: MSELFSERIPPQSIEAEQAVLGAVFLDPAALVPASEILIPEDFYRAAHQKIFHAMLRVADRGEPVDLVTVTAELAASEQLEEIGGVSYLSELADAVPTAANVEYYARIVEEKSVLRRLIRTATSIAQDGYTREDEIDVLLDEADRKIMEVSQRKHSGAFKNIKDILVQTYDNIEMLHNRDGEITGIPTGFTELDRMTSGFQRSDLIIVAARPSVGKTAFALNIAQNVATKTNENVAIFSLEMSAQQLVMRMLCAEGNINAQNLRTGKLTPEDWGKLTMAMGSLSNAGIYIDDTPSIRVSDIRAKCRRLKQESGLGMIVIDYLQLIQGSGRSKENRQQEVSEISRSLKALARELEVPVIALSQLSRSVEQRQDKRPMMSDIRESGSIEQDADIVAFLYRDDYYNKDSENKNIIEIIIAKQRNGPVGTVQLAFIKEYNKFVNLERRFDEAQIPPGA

DnaB helicase;DnaG(HBD) [3] = biological target: T2, DnaB helicase;DnaG(HBD) (Bacillus stearothermophilus;Bacillus …, UniProt Q9X4C9;Q9X4D0 1-454;455-597, |); test: gel filtration with SDS-PAGE and native PAGE; ternary complex, single peak; ITC Kd of Table 1 (about 1 uM) is HBD binding to preformed DnaB6/dT16, a protein-protein contact, so not listed as a value; EMSA: 25 mM Tris pH 8.0, 100 mM NaCl, 10% glycerol, 1 mM DTT, 5 mM MgCl2, 2 mM ATP, 4 C, native PAGE (6% in Methods, 8% in legend); ITC: 25 mM Tris pH 8.0, 100; conditions: protein: recombinant;recombinant; tags: GST tag removed with PreScission (pGEX-6p-1);GST tag removed with PreScission (pGEX-6p-1); chain copies: 6;1; label: none stated; single strand
T2 sequence 1: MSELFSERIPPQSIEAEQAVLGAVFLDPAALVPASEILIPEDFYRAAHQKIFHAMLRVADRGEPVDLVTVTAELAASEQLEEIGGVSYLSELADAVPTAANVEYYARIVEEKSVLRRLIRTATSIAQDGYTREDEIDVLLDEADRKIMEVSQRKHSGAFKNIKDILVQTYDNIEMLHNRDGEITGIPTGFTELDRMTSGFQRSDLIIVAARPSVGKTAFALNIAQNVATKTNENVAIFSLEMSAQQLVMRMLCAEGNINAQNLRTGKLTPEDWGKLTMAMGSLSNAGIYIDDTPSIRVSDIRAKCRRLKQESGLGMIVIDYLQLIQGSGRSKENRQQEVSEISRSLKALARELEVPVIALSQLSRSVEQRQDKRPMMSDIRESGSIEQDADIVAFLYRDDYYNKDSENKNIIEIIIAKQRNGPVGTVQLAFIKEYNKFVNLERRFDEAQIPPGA
T2 sequence 2: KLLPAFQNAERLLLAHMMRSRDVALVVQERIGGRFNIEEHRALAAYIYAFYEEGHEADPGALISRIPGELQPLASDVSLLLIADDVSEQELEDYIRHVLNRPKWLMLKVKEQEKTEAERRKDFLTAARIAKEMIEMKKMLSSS

[4] = biological target: helicase-binding domain of primase DnaG from Bacillus stearothermophilus (Bacillus stearothermophilus) (UniProt Q9X4D0); test: ITC; reverse titration: pre-formed DnaB6/dT16 complex (200 μmol/L, needle) titrated into DnaG(HBD) (10 μmol/L, cell); 25°C; 25 mmol/L Tris pH 8.0, 100 mmol/L NaCl; one-set-of-sites model
DnaB helicase;DnaG(HBD) [5] = biological target: T2, DnaB helicase;DnaG(HBD); test: EMSA; DnaG(HBD) 1-15 pmol added to DnaB/dT16; 5 mM MgCl2, 2 mM ATP; EMSA: 25 mM Tris pH 8.0, 100 mM NaCl, 10% glycerol, 1 mM DTT, 5 mM MgCl2, 2 mM ATP, 4 C, native PAGE (6% in Methods, 8% in legend); ITC: 25 mM Tris pH 8.0, 100; conditions: protein: recombinant;recombinant; tags: GST tag removed with PreScission (pGEX-6p-1);GST tag removed with PreScission (pGEX-6p-1); chain copies: 6;1; label: 5'-6-FAM; single strand

stoichiometry N (DnaG(HBD) per DnaB hexamer) [1]: 3
Kd [2]: 0.96 µM and 1.13 µM and 1.07 µM
dH [2]: -22.8 kcal/mol and -22.7 kcal/mol and -22.2 kcal/mol
stoichiometry N [2]: 1.09 and 1.02 and 0.981
Molecule: helicase-binding domain of primase DnaG from Bacillus stearothermophilus (from UniProt Q9X4D0 1-597) (domain or fragment)

Molecule: TTTTTTTTTTTTTTTT (ssDNA) [dT16]
binding result (DnaB helicase): binds
binding result (DnaB helicase;DnaG(HBD) [3]): binds

Kd [4]: 1.01 µM and 1.11 µM and 0.89 µM
dH [4]: -11.2 kcal/mol and -9.18 kcal/mol and -9.75 kcal/mol
stoichiometry N [4]: 0.987 and 1.08 and 1.05
B1: helicase DnaB hexamer from Bacillus stearothermophilus (enzyme)
chain: MSELFSERIPPQSIEAEQAVLGAVFLDPAALVPASEILIPEDFYRAAHQKIFHAMLRVADRGEPVDLVTVTAELAASEQLEEIGGVSYLSELADAVPTAANVEYYARIVEEKSVLRRLIRTATSIAQDGYTREDEIDVLLDEADRKIMEVSQRKHSGAFKNIKDILVQTYDNIEMLHNRDGEITGIPTGFTELDRMTSGFQRSDLIIVAARPSVGKTAFALNIAQNVATKTNENVAIFSLEMSAQQLVMRMLCAEGNINAQNLRTGKLTPEDWGKLTMAMGSLSNAGIYIDDTPSIRVSDIRAKCRRLKQESGLGMIVIDYLQLIQGSGRSKENRQQEVSEISRSLKALARELEVPVIALSQLSRSVEQRQDKRPMMSDIRESGSIEQDADIVAFLYRDDYYNKDSENKNIIEIIIAKQRNGPVGTVQLAFIKEYNKFVNLERRFDEAQIPPGA

Molecule: TTTTTTTTTTTTTTTT (ssDNA) [dT16 (6-FAM)]
binding result (DnaB helicase;DnaG(HBD) [5]): binds

— paper PMC12418098, “A single helicase-binding domain of DnaG couples with hexameric helicase DnaB in Bacillus stearothermophilus”
